In the Human Domainome abundance scans (Beltran et al. 2025):
± gives the uncertainty stated by the source.

Assay: abundance fitness (aPCA) (normalised: wild type 0, dead -1); higher = more abundant; growth selection in yeast, the domain comes from the species named
Settings: Homo sapiens
“SAFB-like transcription modulator K31Y, Q9NWH9” showed an abundance fitness of -0.213 ± 0.075. “SAFB-like transcription modulator K35A, Q9NWH9” showed an abundance fitness of -0.08 ± 0.072. With “SAFB-like transcription modulator K35C, Q9NWH9” the abundance fitness was -0.528 ± 0.23. Substance “SAFB-like transcription modulator K35D, Q9NWH9” has an abundance fitness of -0.046 ± 0.097. With “SAFB-like transcription modulator K35E, Q9NWH9” the abundance fitness was -0.013 ± 0.083. “SAFB-like transcription modulator K35F, Q9NWH9” gave an abundance fitness of -0.267 ± 0.17. For “SAFB-like transcription modulator K35G, Q9NWH9”, the abundance fitness was 0.023 ± 0.051. With “SAFB-like transcription modulator K35I, Q9NWH9” the abundance fitness was -0.067 ± 0.037. “SAFB-like transcription modulator K35L, Q9NWH9” showed an abundance fitness of -0.44 ± 0.11. With “SAFB-like transcription modulator K35M, Q9NWH9” the abundance fitness was -0.035 ± 0.079. “SAFB-like transcription modulator K35P, Q9NWH9” showed an abundance fitness of -0.943 ± 0.14. For “SAFB-like transcription modulator K35Q, Q9NWH9”, the abundance fitness was 0.052 ± 0.053. For “SAFB-like transcription modulator K35R, Q9NWH9”, the abundance fitness was -0.023 ± 0.041. In the case of “SAFB-like transcription modulator K35S, Q9NWH9”, the abundance fitness is reported as -0.034 ± 0.07. Work on “SAFB-like transcription modulator K35T, Q9NWH9” yielded an abundance fitness of -0.474 ± 0.13. With “SAFB-like transcription modulator K35V, Q9NWH9” the abundance fitness was -0.11 ± 0.042. In the case of “SAFB-like transcription modulator K35W, Q9NWH9”, the abundance fitness is reported as -0.163 ± 0.077. “SAFB-like transcription modulator K35Y, Q9NWH9” gave an abundance fitness of -0.086 ± 0.37. For “SAFB-like transcription modulator K45A, Q9NWH9”, the abundance fitness was -0.224 ± 0.068. Work on “SAFB-like transcription modulator K45C, Q9NWH9” yielded an abundance fitness of -0.617 ± 0.052. With “SAFB-like transcription modulator K45D, Q9NWH9” the abundance fitness was -0.208 ± 0.037. Work on “SAFB-like transcription modulator K45E, Q9NWH9” yielded an abundance fitness of -0.096 ± 0.038. Work on “SAFB-like transcription modulator K45F, Q9NWH9” yielded an abundance fitness of -0.55 ± 0.037. “SAFB-like transcription modulator K45G, Q9NWH9” showed an abundance fitness of -0.2 ± 0.066. “SAFB-like transcription modulator K45H, Q9NWH9” gave an abundance fitness of -0.372 ± 0.12. For “SAFB-like transcription modulator K45I, Q9NWH9”, the abundance fitness was -0.513 ± 0.079. Substance “SAFB-like transcription modulator K45L, Q9NWH9” has an abundance fitness of -0.731 ± 0.056. “SAFB-like transcription modulator K45M, Q9NWH9” showed an abundance fitness of -0.325 ± 0.076. “SAFB-like transcription modulator K45N, Q9NWH9” gave an abundance fitness of -0.334 ± 0.086. “SAFB-like transcription modulator K45P, Q9NWH9” showed an abundance fitness of -0.194 ± 0.077. “SAFB-like transcription modulator K45Q, Q9NWH9” gave an abundance fitness of -0.099 ± 0.084. With “SAFB-like transcription modulator K45S, Q9NWH9” the abundance fitness was -0.25 ± 0.055. Substance “SAFB-like transcription modulator K45T, Q9NWH9” has an abundance fitness of -0.095 ± 0.053. With “SAFB-like transcription modulator K45V, Q9NWH9” the abundance fitness was -0.399 ± 0.052. In the case of “SAFB-like transcription modulator K45W, Q9NWH9”, the abundance fitness is reported as -0.293 ± 0.054. Work on “SAFB-like transcription modulator K45Y, Q9NWH9” yielded an abundance fitness of -0.005 ± 0.085. “SAFB-like transcription modulator K53A, Q9NWH9” showed an abundance fitness of 0.006 ± 0.071. Work on “SAFB-like transcription modulator K53C, Q9NWH9” yielded an abundance fitness of -0.231 ± 0.052. For “SAFB-like transcription modulator K53D, Q9NWH9”, the abundance fitness was -0.931 ± 0.3. “SAFB-like transcription modulator K53E, Q9NWH9” gave an abundance fitness of -0.351 ± 0.099. “SAFB-like transcription modulator K53F, Q9NWH9” showed an abundance fitness of -0.291 ± 0.06. Work on “SAFB-like transcription modulator K53G, Q9NWH9” yielded an abundance fitness of -0.35 ± 0.089. With “SAFB-like transcription modulator K53H, Q9NWH9” the abundance fitness was -0.039 ± 0.14. In the case of “SAFB-like transcription modulator K53I, Q9NWH9”, the abundance fitness is reported as -0.369 ± 0.08. Substance “SAFB-like transcription modulator K53M, Q9NWH9” has an abundance fitness of -0.407 ± 0.12. In the case of “SAFB-like transcription modulator K53N, Q9NWH9”, the abundance fitness is reported as -0.295 ± 0.11. With “SAFB-like transcription modulator K53P, Q9NWH9” the abundance fitness was -0.778 ± 0.058. “SAFB-like transcription modulator K53Q, Q9NWH9” gave an abundance fitness of -0.159 ± 0.084. For “SAFB-like transcription modulator K53R, Q9NWH9”, the abundance fitness was 0.05 ± 0.059. For “SAFB-like transcription modulator K53S, Q9NWH9”, the abundance fitness was -0.141 ± 0.043. “SAFB-like transcription modulator K53T, Q9NWH9” gave an abundance fitness of -0.03 ± 0.084. “SAFB-like transcription modulator K53V, Q9NWH9” gave an abundance fitness of -0.184 ± 0.051.
